Experimental data reported in the supplement of paper PMC12636428.

The sequences below were run on Saccharomyces cerevisiae (assay: transcriptional activation domain activity (GFP:mCherry ratio, weighted mean of sorted bins, harmonized to initial dataset scale) (arbitrary fluorescence ratio units); higher = stronger transcriptional activation). Conditions: beta-estradiol 1 µM; induction time 4 h.
Outline: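 The activation activity of each tile is the read-weighted mean of bin median fluorescence, averaged across its barcodes and mapped linearly onto the scale of the initial dataset. Tiles were fused to an estradiol-inducible synthetic transcription factor, barcoded, and integrated at URA3 in yeast diploids carrying a GFP reporter. Induction used 1 uM beta-estradiol in SC for 4 hours at 30 °C, after which cells were sorted into 8 GFP:mCherry bins, and any tile with fewer than 50 reads was dropped.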

Sequence	transcriptional activation domain activity
AQSSPVRASPHPADSPSKPAAKPVSKPATAAPPAASKPTTAAAPKAAAAKPVS	27200
MAVSIWDFVLCIFPHLHFLCLWIVFLSLFMFSYCFKFRFTPVLLTISLPRCFF	51200
SPLPPPSPFFPLQPLSLFHLSPLFSPVSLHFPCFSPFPPPLPPFFLPLLPLLS	60500
GASPEESNSGNSRAGASRARKGSKVIDENMVEDALLGLQITHGCLVHHTASVQ	44800
ANPLSDSASFLSEENEDDAFGALNYNSLDATTMSAFDNNVDPFNILKSSPAQD	66600
KGKSKERKTESASTSGSEAKESEAAPKEEKEDAKKEDDKKEKAEEKTEEKAEE	51500
HFLGALIMLLGGYFHANLIHFGSYIWPSFLVWGLDRLIRLARVVYFNHLYFGF	34500
NEEQTINLINYVLTCSNTVIRNTVFRNKVLNLLVSMILALKTPDYFIIFKIVV	74300
MFCLRSWIPILFFLSVSNASPIYLILFVVTTYLLNRPCVYCSLLLGVLVLALF	38500
MFFLFFLLVSWWLCYLLLMASSFLIVGGMYLLALCPPLGCIGDLVVPFYFLFL	81700
SAGTAQAGKKPRILLKVNGRSYQRVDCVGRGGSGKVYKVTAENGKMFAMKRVS	45100
MITYILRLGFDYLPPLALWIAIVLVHYTYVCCFLVVACENTCRWHMVQFNLRH	73300
LVMAHYLYANACAKGEHLIVTTWDMYYEKWGFMLIFWNMAGVPLSYCHCTLYL	65300
METTVSGQSSQPPAANDDQEPTKKRKRDKYVGKACGPCKRRKIRCGGGVPCES	36300
EIGPDGEVKKKYDPKDPMRPRRKKARRACFACQRAHLTCGDERPCQRCIKRGL	53300
YVLATCYPKWVYEVLMATRGRIWCVLILLAYPFFAVGVGVIVCVMGLLVAAWI	35800
MGKGGYGEQRGGGRGGFRGGRGGGRGGFGGGGFNQGPPSEVVVVGAFVSACEG	56800
MHCVLALSLGLLSRVIVFYGCSFRGKLHFMMFWEALYLLLIFMRMLWLLFFIT	51000
HDLLVDSLRLVMELLKAPGGLSVHALTAHLNILSFTVRLLDLCLDMALETPHH	84900
MNQTSRFFSPFFSPFFSPFFSPFFLLFFLFSLFLSFPSFLLPCFLLLFLSFYF	48800
TPEFHGQADVDTGILTLKKDEDIRDHPDAARFAEESKAARITKRGAREGLEHV	22000

Sequence	transcriptional activation domain activity
MAWAIQGRLFSFNCSCSHFIFWPLFFFFSLPWRAWSSIGNNSRFSRLFFFFFL	60900
KEDILLTLYENSTFGGLWSKLSDCLTVIRQRGNMLNIATILLPLIEALMVVCK	54700
DERRLVWPSRLTFMKVVFLLNRYVPFAGSFGMMYVLTLVNPVTQSDFCKHGFL	54900
VEEVLEKRAHRGPAGRSVEEEDEDVEEVLEKRAHRGPAGRSVEVEEKRAHRGP	29700
TLAPNGSSNLVHLFAAHSIGKVRSSLLSSLNRKFSSNPSSPCSYFLIFQLFTR	61100
PMSDQHKSQLLPITSVRLRLKLIVHWIHGFKTQWWFRVFFFQKYLRSILFDPF	37700
MDFNGVVFCPVYISLLPLFFYPYNIYHFNDSLMRPNEISVAVYLLLILLNFQD	51000
VHPIVCLVVCLLGHIWSFHVYYCLLKIGLLFSLFPLVRLARCAIFYRRCFSYF	40200
SGPSSNDELIEKGRMLVDELSEAGGGIKDGARNNTSSLYLHLVRVSIDKFSHA	18900
NLSLQEIVGILLRANAFRPMCKNCEHLRDKVGAHIVDCACFEYWLQLGLFIAP	47000
MEGSEKAARVAPPAQRVRTGCLTCRKRHLKCDEAKPTCENCRKGRRECVRGLR	6710
SRSGGGNGKPAGSGKNGSSQLKEVASRSRRRGDSDDDDRKGGSTRSGGGSRKV	34000
RRDCATSSDARTPARLCCSHGVGTKLDKAETSREVSAEEARALADAHGARFCE	24300
SGRTATSAKSHNIISGYREEVEQANLNLSLIDSQVVLLRAWKLLAMELCPFAF	55900
FGRSKAKRRAGRGFGTSGYGAGSSASNGGKDAKGGDTKGAENRYHDNKDEDND	38200
EEEESAAAAKKMAAVKTRKARAGSPKTKSARKATSTRPTSKTKGGAKAKRAAA	20900
YYGMYPQDISTLGVSPRTPTSRLIRSYMKTILSNPESRKIFYFLMLNMCYMLV	58900
TRCLLMYMYFLQDIGIYIYCILILNLFRKVRRLIPFPSRVLMVLHVITICIFT	74300
LRYALDLYRSLRAKVWENSPLILRQLEGIGKMILIISLLRKLIGVIIQLMYCF	55500
MMSGGMAYQVLFLYLLGYRLFYPRYFLFHSMFLFFIYCYMRCCPFRFTTILID	58000
TMDKQIKYFWSSPCKFISLIYFANRYIGILEAISEIARLGFIWLQNLADILLM	43800

Sequence	transcriptional activation domain activity
ALEKDKKEEPKEDSKKDESKTEKKEEEDNKDENGRPKLVVKRLRKETTAAAAV	20000
MGFASFRKESFCRIGTKELMCARMCLLCPLARSLIFMVLRVVLLLSTLLLVFL	61900
AWPLHLTLGKIPKSIRYQDYHRACRVLAYFPIIHVKGGIIRPAWWWSHCKKLI	36300
MSLRRSCLIFRWHVFMLLLMLFVRTWLVRLLVFLVFVVLMVRLLSLFPPFPLS	32200
MYCFIILYMYILLLFFSRSVYFSLFFFFFCLHFYSIFFFFICSLFIYLFIYLF	63500
PSPLPKHQIIREASNVRNITKMKKYDSTFYLHRDHVNYEEYGVDSLLFSYPED	58100
RAVDNSKWWLLGDSFETDVLTFVSLFQFVNAALIFNYGYLFRDRWYRNYLLLV	47900
MHSMRHAPSSFFLLFRPVIVFMAVVFSNFYLLPLLFSLLYVILCFFLYILFVS	34600
EGDSDEEGDEDMYQQVDMNDVMDGVLEGMDNMGEERLNRGRARLKIHTGGPGK	37300
RWIRVRKHMVLAATLVEPFTESVVLSIICASSLKYLFGVWLWISICVHFALWA	48100
VEAAEPEIEVPNKDSRPSKRGRKEKVIEEEDSAPVDKPVSKGKKAAPVAKTAL	15300
PRVVELQKEVIAYNKRLLALNIRDHQVQYAKLNIFYCFGLFWYRVLKLLVLSA	38500
MFFLSSIFLTLSMTLSPLFLYFNWLVVYGFSSLFFIFSTPTFLPPLCFFQWYC	45200
GLFASCWQRFAQAYRPCIGLTRIFVLCLLEVVLWLKGLEILFWFFLWCWCTTT	50200
EEDLWTMTNLFVSPVARSLPCTSLLLCLCSLLVYLLASLTFPYLAFFLVFILF	53000
MGFCFYVAGCMSISLILLFSFCLLLPPIFTGYQILWLLWIILPILSMSMLFTP	43400
LGSLTFLDNAFQLDLEFLLSSNMTMPSPLDTCFDFLFPFTQMPSLEPCTFPPV	138000
AGNATAGTGTGKGKGKGKGKGKGKGKKAGKNAGKNAGKNAGKNSTAAAGGQQK	20100
LLIPTISFFFCATNCYVLTKDSQLDRGYIYWVLRCSAVHLMLSFFTLLFSLCF	48100
